This is an account of results in IntAct's records for PubMed 19846556.

To fix the notation:
B1: Peroxisome proliferator-activated receptor gamma coactivator 1-alpha (Homo sapiens), Q9UBK2 (parent)
chain: MAWDMCNQDSESVWSDIECAALVGEDQPLCPDLPELDLSELDVNDLDTDSFLGGLKWCSDQSEIISNQYNNEPSNIFEKIDEENEANLLAVLTETLDSLPVDEDGLPSFDALTDGDVTTDNEASPSSMPDGTPPPQEAEEPSLLKKLLLAPANTQLSYNECSGLSTQNHANHNHRIRTNPAIVKTENSWSNKAKSICQQQKPQRRPCSELLKYLTTNDDPPHTKPTENRNSSRDKCTSKKKSHTQSQSQHLQAKPTTLSLPLTPESPNDPKGSPFENKTIERTLSVELSGTAGLTPPTTPPHKANQDNPFRASPKLKSSCKTVVPPPSKKPRYSESSGTQGNNSTKKGPEQSELYAQLSKSSVLTGGHEERKTKRPSLRLFGDHDYCQSINSKTEILINISQELQDSRQLENKDVSSDWQGQICSSTDSDQCYLRETLEASKQVSPCSTRKQLQDQEIRAELNKHFGHPSQAVFDDEADKTGELRDSDFSNEQFSKLPMFINSGLAMDGLFDDSEDESDKLSYPWDGTQSYSLFNVSPSCSSFNSPCRDSVSPPKSLFSQRPQRMRSRSRSFSRHRSCSRSPYSRSRSRSPGSRSSSRSCYYYESSHYRHRTHRNSPLYVRSRSRSPYSRRPRYDSYEEYQHERLKREEYRREYEKRESERAKQRERQRQKAIEERRVIYVGKIRPDTTRTELRDRFEVFGEIEECTVNLRDDGDSYGFITYRYTCDAFAALENGYTLRRSNETDFELYFCGRKQFFKSNYADLDSNSDDFDPASTKSKYDSLDFDSLLKEAQRSLRR
partner: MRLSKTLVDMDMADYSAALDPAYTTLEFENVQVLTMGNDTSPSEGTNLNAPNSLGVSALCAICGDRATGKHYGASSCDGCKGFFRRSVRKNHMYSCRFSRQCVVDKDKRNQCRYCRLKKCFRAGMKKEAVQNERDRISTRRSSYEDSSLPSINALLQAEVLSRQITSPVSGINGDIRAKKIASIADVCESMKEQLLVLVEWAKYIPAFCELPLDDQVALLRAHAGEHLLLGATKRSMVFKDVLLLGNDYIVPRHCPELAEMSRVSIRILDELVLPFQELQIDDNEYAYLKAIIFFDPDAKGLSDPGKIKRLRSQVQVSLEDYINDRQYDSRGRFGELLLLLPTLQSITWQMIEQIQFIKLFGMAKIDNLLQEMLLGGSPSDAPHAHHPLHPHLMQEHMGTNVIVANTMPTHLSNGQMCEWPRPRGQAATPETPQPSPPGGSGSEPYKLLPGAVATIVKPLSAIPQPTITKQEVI

Experiment [1] covers variants of B1. The conditions noted are these: with hnf4a_human HNF4A.
The variants in experiment [2] derive from B1. The conditions noted are these: with hnf4a_human HNF4A. This is another data set of the same source.

Take V91A;L92A;L147A;L148A: the “effect of a mutation on the interaction” value in experiment [1] and in experiment [2] was “decreasing interaction” each time.

Turning to V91A;L92A;L147A;L148A;Y213A;L214A, the “effect of a mutation on the interaction” value in experiment [1] and in experiment [2] was “disrupting interaction” each time.

On to V91A;L92A;Y213A;L214A, for which the “effect of a mutation on the interaction” value in experiment [1] and in experiment [2] was “decreasing interaction” in each case.

As to V91A;L92A, the “effect of a mutation on the interaction” value in experiment [2] is given as “decreasing interaction”.

With L147A;L148A;Y213A;L214A, the “effect of a mutation on the interaction” value in experiment [1] and in experiment [2] was “disrupting interaction” each time.

Consider Y213A;L214A, for which the “effect of a mutation on the interaction” value in experiment [1] is recorded as “decreasing interaction”.

For L147A;L148A, in experiment [1], the “effect of a mutation on the interaction” value is reported as “decreasing interaction”.
